Reference: article PMC7378068

Molecular target: T1, IL-1R1 (mouse IL-1R complex on HEK-Blue-IL1R cells) (mouse) (UniProt P13504)
T1 sequence: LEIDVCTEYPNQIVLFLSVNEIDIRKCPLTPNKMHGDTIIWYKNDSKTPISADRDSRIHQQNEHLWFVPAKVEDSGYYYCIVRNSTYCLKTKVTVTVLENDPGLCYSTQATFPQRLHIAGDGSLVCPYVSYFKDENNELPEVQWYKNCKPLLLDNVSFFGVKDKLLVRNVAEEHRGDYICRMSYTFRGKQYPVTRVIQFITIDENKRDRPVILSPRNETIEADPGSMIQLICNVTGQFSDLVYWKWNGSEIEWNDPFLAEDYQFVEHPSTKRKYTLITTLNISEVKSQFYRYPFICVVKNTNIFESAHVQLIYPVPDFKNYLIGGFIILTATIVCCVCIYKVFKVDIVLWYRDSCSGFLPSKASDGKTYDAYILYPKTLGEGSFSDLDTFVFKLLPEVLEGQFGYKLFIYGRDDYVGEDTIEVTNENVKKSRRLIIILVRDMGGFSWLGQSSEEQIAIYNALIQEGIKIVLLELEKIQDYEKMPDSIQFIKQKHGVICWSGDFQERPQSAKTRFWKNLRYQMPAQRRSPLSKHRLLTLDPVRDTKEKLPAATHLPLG

- NF-κB-driven expression of a luciferase reporter in HEK-Blue-IL1R cells; fold reduction in activity compared with WT IL-1β: 168 fold
Substance: human IL-1β mutant Q148G (from UniProt P01584 117-269) (ligand)
